Experimental data as given in patent US20160130333A1 (published 2016).

B1: mIMMU-H4 (antibody, V domains shown)
VH: QVQLQQSGAELVRPGASVKLSCTASGFNIKDDYLHWVKQRPEQGLEWIGWIDPENGDTEYASKFQGKATITADTSSNTAYLQLSSLTSEDTAVYYCSSPLVHLRTFAYWGQGTLVTVS
VL: DIQLTQSPASLAVSLGQRATISCRASESVDSYDNSLHWFQQKPGQPPKLLIYLASNLESGVPARFSGSGSRTDFTLTIDPVEADDAATYYCQQNNEDPWTFGGGTKLEIKR
B2: cIMMU-H4 (antibody, V domains shown)
VH: QVQLQQSGAELVRPGASVKLSCTASGFNIKDDYLHWVKQRPEQGLEWIGWIDPENGDTEYASKFQGKATITADTSSNTAYLQLSSLTSEDTAVYYCSSPLVHLRTFAYWGQGTLVTVSA
VL: B1 VL

Molecular target: histones
Test: ELISA

| Kd | Binder |
| --- | --- |
| 6.6 nM | B1 |
| 0.96 nM | B2 |
